Results: patent US20140363428A1 (Chugai, published 2014)
Changes are numbered by the printed parent chain.

B1: IgG1-F1125 (antibody)
heavy: QVQLQESGPGLVKPSETLSLTCAVSGHSISHDHAWSWVRQPPGEGLEWIGFISYSGITNYNPSLQGRVTISRDNSKNTLYLQMNSLRAEDTAVYYCARSLARTTAMDYWGEGTLVTVSSASTKGPSVFPLAPSSKSTSGGTAALGCLVKDYFPEPVTVSWNSGALTSGVHTFPAVLQSSGLYSLSSVVTVPSSSLGTQTYICNVNHKPSNTKVDKKVEPKSCDKTHTCPPCPAPELLGGPSVFLFPPKPKDTLYISRTPEVTCVVVDVSHEDPEVKFNWYVDGVEVHNAKTKPREEQYNSTYRVVSVLQVLHQDWLNGKEYKCKVSNKALPAPIEKTISKAKGQPREPQVYTLPPSRDELTKNQVSLTCLVKGFYPSDIAVEWESNGQPENNYKTTPPVLDSDGSFFLYSKLTVDKSRWQQGNVFSCSVMHEALHYHVTQKSLSLSP
light: not shown
notes: VH3-IgG1 with Fc substitutions (EU numbering) + L(WT)-CK
B2: IgG1-F1108 (antibody)
heavy: B1 heavy with Q309T, V424K
light: not shown
notes: as for B1
B3: IgG1-F1104 (antibody)
heavy: B1 heavy with Q309T, V424E, S426R
light: not shown
notes: as for B1
B4: IgG1-F1110 (antibody)
heavy: B1 heavy with Q309T, V424Q
light: not shown
notes: as for B1
B5: IgG1-F1100 (antibody)
heavy: B1 heavy with S241D, Q309T, K328D, L330Y, V438Y
light: not shown
notes: as for B1
B6: IgG1-F1058 (antibody)
heavy: B1 heavy with Q309T, Q388E
light: not shown
notes: as for B1
B7: IgG1-F1066 (antibody)
heavy: B1 heavy with Q309T, V424S
light: not shown
notes: as for B1
B8: IgG1-F1105 (antibody)
heavy: B1 heavy with Q309T, V424S, S426R
light: not shown
notes: as for B1
B9: IgG1-F1059 (antibody)
heavy: B1 heavy with Q309T, Q388R
light: not shown
notes: as for B1
B10: IgG1-F1077 (antibody)
heavy: B1 heavy with K250N, Q309T, V438Y
light: not shown
notes: as for B1
B11: IgG1-F1076 (antibody)
heavy: B1 heavy with S241D, Q309T, K328D, L330Y
light: not shown
notes: as for B1
B12: IgG1-F1099 (antibody)
heavy: B1 heavy with Q309T, K328D, L330Y, V438Y
light: not shown
notes: as for B1
B13: IgG1-F1098 (antibody)
heavy: B1 heavy with S241D, Q309T, V438Y
light: not shown
notes: as for B1
B14: IgG1-F1064 (antibody)
heavy: B1 heavy with Q309T, V424E
light: not shown
notes: as for B1
B15: IgG1-F1097 (antibody)
heavy: B1 heavy with Q309T, G387N, P389S, V438Y
light: not shown
notes: as for B1
B16: IgG1-F1106 (antibody)
heavy: B1 heavy with Q309T, Q440R, S442E
light: not shown
notes: as for B1
B17: IgG1-F1072 (antibody)
heavy: B1 heavy with Q309T, S442E
light: not shown
notes: as for B1
B18: IgG1-F1083 (antibody)
heavy: B1 heavy with Q309T, V438Y, S442N
light: not shown
notes: as for B1
B19: IgG1-F1065 (antibody)
heavy: B1 heavy with Q309T, V424R
light: not shown
notes: as for B1
B20: IgG1-F1096 (antibody)
heavy: B1 heavy with Q309T, Q388T, V438Y
light: not shown
notes: as for B1
B21: IgG1-F1063 (antibody)
heavy: B1 heavy with Q309T, P389S
light: not shown
notes: as for B1
B22: IgG1-F1080 (antibody)
heavy: B1 heavy with Q309T, S426N, V438Y
light: not shown
notes: as for B1
B23: IgG1-F1067 (antibody)
heavy: B1 heavy with Q309T, S426E
light: not shown
notes: as for B1
B24: IgG1-F1111 (antibody)
heavy: B1 heavy with Q309T, S426K
light: not shown
notes: as for B1
B25: IgG1-F1107 (antibody)
heavy: B1 heavy with Q309T, V424D
light: not shown
notes: as for B1
B26: IgG1-F1103 (antibody)
heavy: B1 heavy with S241D, Q313A, K328D, L330Y, V438Y
light: not shown
notes: as for B1
B27: IgG1-F1071 (antibody)
heavy: B1 heavy with Q309T, Q440S
light: not shown
notes: as for B1
B28: IgG1-F1082 (antibody)
heavy: B1 heavy with Q309T, V438Y, Q440N
light: not shown
notes: as for B1
B29: IgG1-F1061 (antibody)
heavy: B1 heavy with Q309T, P389E
light: not shown
notes: as for B1
B30: IgG1-F1109 (antibody)
heavy: B1 heavy with Q309T, V424T
light: not shown
notes: as for B1
B31: IgG1-F1070 (antibody)
heavy: B1 heavy with Q309T, Q440R
light: not shown
notes: as for B1
B32: IgG1-F1060 (antibody)
heavy: B1 heavy with Q309T, Q388S
light: not shown
notes: as for B1
B33: IgG1-F1101 (antibody)
heavy: B1 heavy with S241D, Q313A, V438Y
light: not shown
notes: as for B1
B34: IgG1-F1079 (antibody)
heavy: B1 heavy with Q309T, E384N, N386S, V438Y
light: not shown
notes: as for B1
B35: IgG1-F1112 (antibody)
heavy: B1 heavy with Q309T, Q440K
light: not shown
notes: as for B1
B36: IgG1-F1074 (antibody)
heavy: B1 heavy with S241D, Q309T
light: not shown
notes: as for B1
B37: IgG1-F1069 (antibody)
heavy: B1 heavy with Q309T, Q440E
light: not shown
notes: as for B1
B38: IgG1-F1073 (antibody)
heavy: B1 heavy with Q309T, S442R
light: not shown
notes: as for B1
B39: IgG1-F1095 (antibody)
heavy: B1 heavy with Q309T, S385N, G387S, V438Y
light: not shown
notes: as for B1
B40: IgG1-F1068 (antibody)
heavy: B1 heavy with Q309T, S426R
light: not shown
notes: as for B1
B41: IgG1-F1102 (antibody)
heavy: B1 heavy with Q313A, K328D, L330Y, V438Y
light: not shown
notes: as for B1
B42: IgG1-F1336 (antibody)
heavy: B1 heavy with L237R, G238R, S241K, T258E, Q309T, Q440K, S442D
light: not shown
notes: EU numbering; copies: 2 + 2
B43: IgG1-F1339 (antibody)
heavy: B1 heavy with L237R, S241K, S256T, T258E, Q309T, H435D, V438T, Q440K, S442E
light: not shown
notes: EU numbering; copies: 2 + 2
B44: IgG1-F1346 (antibody)
heavy: B1 heavy with L237R, G238R, S241K, S256T, Q309T, Q440K, S442E
light: not shown
notes: EU numbering; copies: 2 + 2
B45: IgG1-F1349 (antibody)
heavy: B1 heavy with L237R, S241K, Q309T, V438T, Q440R, S442E
light: not shown
notes: EU numbering; copies: 2 + 2
B46: IgG1-F1340 (antibody)
heavy: B1 heavy with L237R, S241K, S256T, T258E, Q309T, Q440K, S442E
light: not shown
notes: EU numbering; copies: 2 + 2
B47: IgG1-F1350 (antibody)
heavy: B1 heavy with L237R, S241K, Q309T, V438F, Q440K, S442E
light: not shown
notes: EU numbering; copies: 2 + 2
B48: IgG1-F1351 (antibody)
heavy: B1 heavy with L237R, S241K, Q309T, V438F, Q440R, S442E
light: not shown
notes: EU numbering; copies: 2 + 2
B49: IgG1-F1342 (antibody)
heavy: B1 heavy with L237R, S241K, T258E, Q309T, V438T, Q440K, S442E
light: not shown
notes: EU numbering; copies: 2 + 2
B50: IgG1-F1347 (antibody)
heavy: B1 heavy with L237R, G238R, S241K, T258E, Q309T, Q440K, S442E
light: not shown
notes: EU numbering; copies: 2 + 2
B51: IgG1-F1341 (antibody)
heavy: B1 heavy with L237R, S241K, S256T, Q309T, V438T, Q440K, S442E
light: not shown
notes: EU numbering; copies: 2 + 2
B52: IgG1-F1345 (antibody)
heavy: B1 heavy with L237R, G238R, S241K, Q309T, Q440K, S442E
light: not shown
notes: EU numbering; copies: 2 + 2
B53: IgG1-F1344 (antibody)
heavy: B1 heavy with L237R, S241K, Q309T, V438T, Q440K, S442E
light: not shown
notes: EU numbering; copies: 2 + 2
B54: IgG1-F1348 (antibody)
heavy: B1 heavy with L237R, G238R, S241K, S256T, T258E, Q309T, Q440K, S442E
light: not shown
notes: EU numbering; copies: 2 + 2
B55: IgG1-F1337 (antibody)
heavy: B1 heavy with L237R, S241K, T258E, Q309T, Q440K, S442E
light: not shown
notes: EU numbering; copies: 2 + 2
B56: IgG1-F1343 (antibody)
heavy: B1 heavy with L237R, S241K, S256T, T258E, Q309T, V438T, Q440K, S442E
light: not shown
notes: EU numbering; copies: 2 + 2
B57: IgG1-F1338 (antibody)
heavy: B1 heavy with L237R, S241K, T258E, Q309T, H435D, Q440K, S442E
light: not shown
notes: EU numbering; copies: 2 + 2
B58: IgG1-F1352 (antibody)
heavy: B1 heavy with L237R, S241K, Q309T, H435D, V438T, Q440K, S442E
light: not shown
notes: EU numbering; copies: 2 + 2

What follows are binders tested against T1, soluble human FcRn (heterodimer of FcRn alpha chain and beta2-microglobulin) (human, UniProt P55899 24-297; P61769 21-119) (assay: SPR Biacore T100, antibody captured via protein L, hFcRn analyte, pH 7.0, 25 C;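 note: KD derived from kinetic ka and kd fits of sensorgrams, CM4 sensor chip, sodium phosphate NaCl Tween20 running buffer, buffer-only injection used as reference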).
T1 construct: Expressed in HEK293H and purified on IgG Sepharose; also called hFcRn
T1 sequence (P55899 24-297 limits assumed, chain 1 of 2): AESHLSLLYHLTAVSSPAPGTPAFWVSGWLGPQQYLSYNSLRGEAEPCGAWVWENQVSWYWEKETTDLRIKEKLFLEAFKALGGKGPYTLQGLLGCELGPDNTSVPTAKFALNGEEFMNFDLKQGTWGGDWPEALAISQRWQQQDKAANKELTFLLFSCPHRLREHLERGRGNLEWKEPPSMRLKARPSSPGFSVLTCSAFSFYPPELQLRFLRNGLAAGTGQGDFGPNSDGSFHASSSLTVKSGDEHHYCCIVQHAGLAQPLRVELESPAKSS
T1 sequence (P61769 21-119 limits assumed, chain 2 of 2): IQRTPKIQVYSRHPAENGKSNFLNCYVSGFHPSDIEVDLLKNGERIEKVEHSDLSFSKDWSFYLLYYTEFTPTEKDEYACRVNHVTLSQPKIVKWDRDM
Experimental: (§1) An appropriate amount of protein L (ACTIGEN) was immobilized onto Sensor chip CM4 (GE Healthcare) by the amino coupling method, and the chip was allowed to capture an antibody of interest. Then, diluted FcRn solutions and running buffer (as a reference solution) were injected to allow human FcRn to interact with the antibody captured on the sensor chip. The running buffer used comprised 50 mmol/l sodium phosphate, 150 mmol/l NaCl, and 0.05% (w/v) Tween20 (pH 7.0). FcRn was diluted using each buffer. The chip was regenerated using 10 mmol/l glycine-HCl (pH 1.5). Assays were carried out exclusively at 25 degrees C. The association rate constant ka (1/Ms) and dissociation rate constant kd (1/s), both of which are kinetic parameters, were calculated based on the sensorgrams obtained in the assays, and KD (M) of each antibody for human FcRn was determined from these values. Each parameter was calculated using Biacore T100 Evaluation Software (GE Healthcare).

In order of falling Kd:
1. B10  2000 nM
2. B18  350 nM
3. B34  340 nM
4. B22  320 nM
5. B39  290 nM
6. B15  280 nM
7. B28  280 nM
8. B20  270 nM
9. B12  260 nM
10. B13  260 nM
11. B5  240 nM
12. B3  180 nM
13. B31  170 nM
14. B40  170 nM
15. B24  160 nM
16. B8  150 nM
17. B7  140 nM
18. B9  140 nM
19. B16  140 nM
20. B19  140 nM
21. B21  140 nM
22. B32  140 nM
23. B37  140 nM
24. B2  130 nM
25. B4  130 nM
26. B6  130 nM
27. B11  130 nM
28. B14  130 nM
29. B17  130 nM
30. B23  130 nM
31. B30  130 nM
32. B36  130 nM
33. B38  130 nM
34. B25  120 nM
35. B27  120 nM
36. B29  120 nM
37. B35  120 nM
38. B33  66 nM
39. B41  65 nM
40. B26  61 nM
41. B1  52 nM

The binders below were run against T2, soluble human FcRn (human, UniProt P55899 24-297; P61769 21-119) (assay: SPR (Biacore T100), antibody captured by protein L, hFcRn as analyte, pH 7.0, 25 C;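 note: KD calculated from fitted association and dissociation rate constants of the sensorgrams, protein L amine-coupled to the sensor chip, sodium phosphate running buffer with NaCl and Tween20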).
T2 construct: Heterodimer of FcRn alpha chain and beta2-microglobulin; also called hFcRn
T2 sequence (P55899 24-297 limits assumed, chain 1 of 2): as the sequence (P55899 24-297 limits assumed, chain 1 of 2) above
T2 sequence (P61769 21-119 limits assumed, chain 2 of 2): as the sequence (P61769 21-119 limits assumed, chain 2 of 2) above
Experimental: as §1

In order of rising Kd:
1. B54  55 nM
2. B46  56 nM
3. B50  71 nM
4. B42  72 nM
5. B55  74 nM
6. B44  86 nM
7. B52  100 nM
8. B57  100 nM
9. B47  120 nM
10. B48  160 nM
11. B56  200 nM
12. B43  250 nM
13. B49  250 nM
14. B51  320 nM
15. B45  340 nM
16. B58  390 nM
17. B53  400 nM
